Experimental data: the supplement of paper PMC9112550, “Optimization of the antimicrobial peptide Bac7 by deep mutational scanning” (BMC Biology, 2022)

System: Escherichia coli TOP10
Experiment: shrunken log2 fold change of peptide-encoding DNA abundance (4.5 h post-induction vs induction); higher = less antimicrobial activity (less host growth inhibition)
Conditions: time post-induction: 4.5 h; library: site-saturation at positions 5, 18, 19, 20
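Also: peptides expressed intracellularly from a pBAD plasmid library in pooled LB shake-flask culture, induced with 0.3% L-arabinose, DNA abundance read by NGS, three biological replicates, DESeq2 with apeglm shrinkage.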

Sequence | shrunken log2 fold change
RRIRHRPPRLPRPRPRPVWIPRP | -0.0159
RRIRIRPPRLPRPRPRPCYCPRP | -0.0457
RRIRTRPPRLPRPRPRPRAMPRP | 0.41
RRIRWRPPRLPRPRPRPANKPRP | -0.348
RRIRLRPPRLPRPRPRPPVTPRP | 0.353
RRIRWRPPRLPRPRPRPCTIPRP | -0.138
RRIRHRPPRLPRPRPRPKFVPRP | -0.0479
RRIRRRPPRLPRPRPRPHNLPRP | -0.176
RRIRIRPPRLPRPRPRPIAYPRP | -0.32
RRIRARPPRLPRPRPRPMYIPRP | -0.345
RRIRSRPPRLPRPRPRPVHPPRP | 0.245
RRIRDRPPRLPRPRPRPQASPRP | -0.0448
RRIRTRPPRLPRPRPRPWIWPRP | -0.0307
RRIRSRPPRLPRPRPRPHAIPRP | -0.144
RRIRIRPPRLPRPRPRPYGQPRP | -0.284
RRIRGRPPRLPRPRPRPPDWPRP | 1.24
RRIRFRPPRLPRPRPRPEWEPRP | 0.00489
RRIRQRPPRLPRPRPRPISVPRP | 0.136
RRIRVRPPRLPRPRPRPRWPPRP | 0.534
RRIRLRPPRLPRPRPRPCMQPRP | -0.154
RRIRKRPPRLPRPRPRPQGEPRP | -0.000844
RRIRERPPRLPRPRPRPARYPRP | 0.24
RRIRSRPPRLPRPRPRPTFRPRP | -0.0691
RRIRTRPPRLPRPRPRPFVIPRP | -0.488
RRIRCRPPRLPRPRPRPPTDPRP | 0.298

Sequence | shrunken log2 fold change
RRIRYRPPRLPRPRPRPTSDPRP | -0.459
RRIRCRPPRLPRPRPRPVCWPRP | 0.401
RRIRVRPPRLPRPRPRPIGEPRP | 0.0407
RRIRGRPPRLPRPRPRPLMHPRP | 0.592
RRIRVRPPRLPRPRPRPHRQPRP | -0.384
RRIRVRPPRLPRPRPRPVWIPRP | -0.206
RRIRHRPPRLPRPRPRPVNVPRP | 0.0798
RRIRSRPPRLPRPRPRPYMFPRP | -0.648
RRIRLRPPRLPRPRPRPSRKPRP | -0.177
RRIRSRPPRLPRPRPRPEQTPRP | 0.709
RRIRNRPPRLPRPRPRPTPHPRP | 0.284
RRIRCRPPRLPRPRPRPSWIPRP | -0.732
RRIRVRPPRLPRPRPRPMDVPRP | 0.0265
RRIRNRPPRLPRPRPRPYWNPRP | -0.108
RRIRWRPPRLPRPRPRPQGSPRP | -0.00843
RRIRIRPPRLPRPRPRPSSGPRP | -0.219
RRIRWRPPRLPRPRPRPDNGPRP | 0.0563
RRIRYRPPRLPRPRPRPSQQPRP | 0.102
RRIRWRPPRLPRPRPRPEGLPRP | 0.267
RRIRYRPPRLPRPRPRPHMHPRP | -0.988
RRIRERPPRLPRPRPRPVEIPRP | -0.0716
RRIRVRPPRLPRPRPRPQWRPRP | -0.0106
RRIRPRPPRLPRPRPRPKNAPRP | -0.0349
RRIRFRPPRLPRPRPRPTPVPRP | 0.706
RRIRDRPPRLPRPRPRPIMFPRP | 0.0387

Sequence | shrunken log2 fold change
RRIRKRPPRLPRPRPRPGTFPRP | 0.253
RRIRHRPPRLPRPRPRPDKQPRP | 0.0409
RRIRTRPPRLPRPRPRPGFWPRP | 0.199
RRIRARPPRLPRPRPRPRVTPRP | 0.462
RRIRQRPPRLPRPRPRPISGPRP | -0.018
RRIRGRPPRLPRPRPRPLPWPRP | 0.702
RRIRWRPPRLPRPRPRPLFGPRP | 0.352
RRIRVRPPRLPRPRPRPIAAPRP | 0.454
RRIRGRPPRLPRPRPRPHNRPRP | 0.0391
RRIRRRPPRLPRPRPRPSLEPRP | 0.232
RRIRFRPPRLPRPRPRPFTLPRP | 0.0331
RRIRGRPPRLPRPRPRPWHFPRP | -0.0456
RRIRFRPPRLPRPRPRPVMMPRP | -0.43
RRIRIRPPRLPRPRPRPDVHPRP | -0.00757
RRIRGRPPRLPRPRPRPIWMPRP | 0.245
RRIRSRPPRLPRPRPRPTHPPRP | 0.298
RRIRDRPPRLPRPRPRPDSVPRP | -0.0148
RRIRERPPRLPRPRPRPIHIPRP | 0.0108
RRIRQRPPRLPRPRPRPIGPPRP | 0.229
RRIRDRPPRLPRPRPRPRAHPRP | 0.38
RRIRERPPRLPRPRPRPYHNPRP | -1.33
RRIRERPPRLPRPRPRPSAVPRP | -0.411
RRIRARPPRLPRPRPRPINVPRP | -0.0118
RRIRDRPPRLPRPRPRPGGSPRP | 0.25
RRIRFRPPRLPRPRPRPCKIPRP | -0.0538

Sequence | shrunken log2 fold change
RRIRYRPPRLPRPRPRPPTQPRP | -0.056
RRIRARPPRLPRPRPRPQNKPRP | -0.232
RRIRKRPPRLPRPRPRPQCKPRP | 0.0757
RRIRMRPPRLPRPRPRPLDVPRP | 0.287
RRIRTRPPRLPRPRPRPVVCPRP | 0.0187
RRIRSRPPRLPRPRPRPNDFPRP | -0.19
RRIRARPPRLPRPRPRPMAQPRP | 0.23
RRIRGRPPRLPRPRPRPRINPRP | -0.122
RRIRKRPPRLPRPRPRPVPSPRP | -0.156
RRIRSRPPRLPRPRPRPWSHPRP | -0.174
RRIRMRPPRLPRPRPRPTNCPRP | 0.0955
RRIRRRPPRLPRPRPRPEFLPRP | 0.441
RRIRIRPPRLPRPRPRPNEWPRP | -0.00088
RRIRWRPPRLPRPRPRPMMWPRP | 0.0342
RRIRSRPPRLPRPRPRPIIVPRP | 0.0771
RRIRVRPPRLPRPRPRPGIDPRP | -0.143
RRIRLRPPRLPRPRPRPSGTPRP | -0.114
RRIRNRPPRLPRPRPRPPVFPRP | 0.15
RRIRNRPPRLPRPRPRPWHRPRP | 0.049
RRIRNRPPRLPRPRPRPVHSPRP | -0.245
RRIRERPPRLPRPRPRPMALPRP | -0.0232
RRIRYRPPRLPRPRPRPKCGPRP | 0.0111
RRIRHRPPRLPRPRPRPGCPPRP | -0.0112
RRIRRRPPRLPRPRPRPDPTPRP | 0.77
RRIRMRPPRLPRPRPRPIGHPRP | 0.0299

Sequence | shrunken log2 fold change
RRIRTRPPRLPRPRPRPDAWPRP | 0.285
RRIRPRPPRLPRPRPRPQKTPRP | -0.0227
RRIRHRPPRLPRPRPRPDHNPRP | -0.956
RRIRMRPPRLPRPRPRPGRYPRP | 0.0164
RRIRYRPPRLPRPRPRPEEYPRP | -0.255
RRIRKRPPRLPRPRPRPMHCPRP | 3.88
RRIRTRPPRLPRPRPRPYCQPRP | -0.804
RRIRARPPRLPRPRPRPTLWPRP | 1.05
RRIRCRPPRLPRPRPRPLWGPRP | -0.26
RRIRERPPRLPRPRPRPVYDPRP | -0.0514
RRIRQRPPRLPRPRPRPFNIPRP | 0.0348
RRIRNRPPRLPRPRPRPSKYPRP | -0.532
RRIRVRPPRLPRPRPRPWQNPRP | 0.013
RRIRLRPPRLPRPRPRPIILPRP | -1.48
RRIRVRPPRLPRPRPRPWYMPRP | -0.132
RRIRVRPPRLPRPRPRPMNTPRP | -0.312
RRIRGRPPRLPRPRPRPNPLPRP | 0.217
RRIRHRPPRLPRPRPRPENYPRP | -0.327
RRIRTRPPRLPRPRPRPSSAPRP | -0.172
RRIRKRPPRLPRPRPRPKYGPRP | -0.206
RRIRTRPPRLPRPRPRPAKEPRP | -0.0337
RRIRFRPPRLPRPRPRPGESPRP | -0.00672
RRIRCRPPRLPRPRPRPVFGPRP | -0.0365
RRIRYRPPRLPRPRPRPSIRPRP | -0.116
RRIRLRPPRLPRPRPRPENTPRP | -0.235

Sequence | shrunken log2 fold change
RRIRIRPPRLPRPRPRPPVHPRP | -0.185
RRIRDRPPRLPRPRPRPNKDPRP | -0.951
RRIRVRPPRLPRPRPRPYGMPRP | -0.0584
RRIRWRPPRLPRPRPRPGIKPRP | -0.168
RRIRIRPPRLPRPRPRPEATPRP | 0.511
RRIRIRPPRLPRPRPRPVLQPRP | 0.103
RRIRERPPRLPRPRPRPGRKPRP | -0.12
RRIRKRPPRLPRPRPRPCFLPRP | -0.0702
RRIRNRPPRLPRPRPRPEKLPRP | -0.00804
RRIRSRPPRLPRPRPRPPQFPRP | -0.103
RRIRDRPPRLPRPRPRPAAPPRP | 0.545
RRIRQRPPRLPRPRPRPNDQPRP | -0.00615
RRIRHRPPRLPRPRPRPRFPPRP | 0.0956
RRIRTRPPRLPRPRPRPPRDPRP | 0.4
RRIRDRPPRLPRPRPRPTLIPRP | 0.0896
RRIRSRPPRLPRPRPRPILEPRP | 0.0161
RRIRERPPRLPRPRPRPFGTPRP | -0.135
RRIRCRPPRLPRPRPRPQKYPRP | -0.698
RRIRPRPPRLPRPRPRPKVFPRP | -0.0552
RRIRMRPPRLPRPRPRPWRGPRP | 0.497
RRIRARPPRLPRPRPRPMPPPRP | 0.3
RRIRYRPPRLPRPRPRPWNIPRP | -0.01
RRIRWRPPRLPRPRPRPKFPPRP | 0.944
RRIRCRPPRLPRPRPRPRKMPRP | -0.00382
RRIRYRPPRLPRPRPRPWTEPRP | -0.0689
